Experiments:
[1] = test system: Staphylococcus epidermidis; assay: Planktonic growth in culture, OD600; assay type: cell-based; conditions: 10-fold serial dilution of Lf, 18 hours
[2] = test system: salivary human bacteria (including Lactobacillus, Lactococcus, Streptococcus mutans, and Porphyromonas gingivalis); assay: Poultry surface treatment, chicken breast inoculated with salivary bacteria; conditions: 3 mg/mL surface treatment, 6 days at 37° C.
Procedure: Chicken breasts were inoculated with salivary human bacteria in a slurry as described above in pH testing (including Lactobacillus, Lactococcus, Streptococcus mutans, and Porphyromonas gingivalis) and left for 6 days at 37° C.

Escherichia coli = assay: Biofilm formation, crystal violet assay; assay type: cell-based; conditions: 24 hours of growth
[3] = test system: cow with a large infected chronic wound on its leg; assay: Case study of a cow with a large infected chronic wound; assay type: in vivo; conditions: three daily treatments as freeze dried powder into the wound bed
Procedure: Lactea Lactoferrin (Lactea-Lf) was produced as described in the above examples and freeze-dried by lyophilization into a powder. Lactea-Lf was then administered as the freeze-dried powder in a variety of animal wound contexts.
For these daily treatments, Lf was applied once on each day to cover the open wound area.

E. coli = assay: Zone of inhibition test; assay type: cell-based
Procedure: A zone of inhibition test was performed to assess bioactivity of API-E2 Lactoferrin. A plate with E. coli was cultured with 100 µg/mL, 10 g/mL, 1 g/mL, and 0.1 g/mL API-E2 Lactoferrin added to paper circles and allowed to diffuse out.

[4] = DSC of additional batches, ratio of apo to holo-Lactoferrin; assay type: physicochemical; conditions: 5 mg/mL, 30° C. to 100° C. range
Procedure: Additional batches of Lactea-Lf as described in the above examples and the relative ratio of apo to holo-Lactoferrin was assessed by Differential Scanning Calorimetry (DSC). Lactoferrin samples were loaded at 5 mg/mL into a NanoDSC (TI Instruments) and measured in the 30° C. to 100° C. range. […] It is likely that these peaks are smaller as the sample is highly impure or contains already denatured product.

[5] = test system: Extra-Cellular Matrix (ECM) of Caco-2 cells; assay: Lactoferrin enrichment at the ECM by immunofluorescent imaging in Caco-2 cells; assay type: cell-based, human; conditions: varying concentrations, 37° C. for two hours
Procedure: To assess bioactivity of Lactoferrin, particularly for its potential as an antiviral, binding to the ECM was assessed. Purified Lactoferrin was produced according to Example 1. Caco-2 cells, a human-derived cell culture, cells were allowed to grow for three days after plating on a coverslip such that the cells could proliferate, and the ECM could fully develop. Purified Lactoferrin was then added to the cells at varying concentrations at 37° C. for two hours to allow it to bind as theorized. To directly observe the localization of the API we used Immunofluorescent (IF) imaging and stained both the API and E-cadherin, a cell membrane marker.
Primary localization internally was also observed at low concentrations, but given Lactoferrin has known intracellular roles and a receptor allowing for its uptake, fractional localization of Lactoferrin to the intracellular space was expected. To quantify the localization of the API, the absolute intensity of the fluorescent signal both just outside/along the E-cadherin mark as well as inside the cell was measured.

[6] = DSC iron binding capability with excess FeCl3; conditions: FeCl3 added in 1000× molar excess
Procedure: The DSC assay was further used to assess Lactoferrin bioactivity, specifically the iron binding capability of the API-E2 Lactoferrin. Iron chloride (FeCl3) was added in 1000× molar excess to API-E2 Lactoferrin. In the presence of excess iron, the API-E2 lactoferrin will bind the iron to its open iron binding site.

lactoperoxidase (LPO) = assay: Enzymatic colorimetric assay for lactoperoxidase (LPO) activity; assay type: biochemical; conditions: colorimetric peroxidase substrate
Text: An enzymatic assay for lactoperoxidase (LPO) activity was developed utilizing a molecule which in the presence of peroxidase activity turns a blue color.

[7] = test system: ECM of primary buccal cells; assay: ECM association by immunofluorescence in primary buccal cells; assay type: cell-based; conditions: 100 µg/mL for 1 hr at 37 C
Procedure: Primary buccal cells were next cultured according to a standard protocol (e.g., see Russo et al. Cytotechnology. 2016 October; 68(5): 2105-2114; herein incorporated by reference for all purposes). […] Immunofluorescence imaging was performed as previously described.

Candida auris = assay: Biofilm formation, crystal violet assay; assay type: cell-based; conditions: 24 hours of growth
Streptococcus mutans = assay: Biofilm formation, crystal violet assay; assay type: cell-based; conditions: 24 hours of growth
SARS-CoV-2 = SARS-CoV-2 Cytopathic Effect (CPE) reduction assay in Vero E6 cells; assay type: cell-based; conditions: Vero E6 cells, MOI of 0.001, neutral red, three days post-infection
Candida albicans = assay: Biofilm formation, crystal violet assay; assay type: cell-based; conditions: 24 hours of growth
Pseudomonas aeruginosa = assay: Biofilm formation, crystal violet assay; assay type: cell-based; conditions: 24 hours of growth
[8] = assay type: binding; conditions: ITC, Lf 5 mg/mL in 100 mM MOPS buffer pH 7, HS approximately 100 µM
E. coli 0157 = assay: Bacterial growth timecourse, OD600; assay type: cell-based; conditions: 1 mg/mL; for Bacterial Growth Timecourse, Replicate 1 / Bacterial Growth Timecourse, Replicate 2 / Bacterial Growth Timecourse, Replicate 3: OD600 relative to no treatment control at 24 hours
Procedure: For a more detailed comparison of Lactea-Lf antimicrobial activity relative to the Sigma Aldrich Lactoferrin, Lactea-Lf and Sigma Aldrich Lactoferrin were incubated at 1 mg/mL with for E. coli 0157 in LB seeded at 10∝CFU/mL. […] Results were quantified and reported as a percent of the OD600 of the no treatment control at 24 hours for all timepoints.

Staphylococcus aureus = assay: Biofilm formation, crystal violet assay; assay type: cell-based; conditions: 24 hours of growth
Cryptococcus neoformans = assay: Biofilm formation, crystal violet assay; assay type: cell-based; conditions: 24 hours of growth

B1: Lactea-Lf: bovine lactoferrin purified from raw untreated milk by cation exchange chromatography and filtration according to Example 1 (protein)
chain: APRKNVRWCTISQPEWFKCRRWQWRMKKLGAPSITCVRRAFALECIRAIAEKKADAVTLDGGMVFEAGRDPYKLRPVAAEIYGTKESPQTHYYAVAVVKKGSNFQLDQLQGRKSCHTGLGRSAGWVIPMGILRPYLSWTESLEPLQGAVAKFFSASCVPCIDRQAYPNLCQLCKGEGENQCACSSREPYFGYSGAFKCLQDGAGDVAFVKETTVFENLPEKADRDQYELLCLNNSRAPVDAFKECHLAQVPSHAVVARSVDGKEDLIWKLLSKAQEKFGKNKSRSFQLFGSPPGQRDLLFKDSALGFLRIPSKVDSALYLGSRYLTTLKNLRETAEEVKARYTRVVWCAVGPEEQKKCQQWSQQSGQNVTCATASTTDDCIVLVLKGEADALNLDGGYIYTAGKCGLVPVLAENRKTSKYSSLDCVLRPTEGYLAVAVVKKANEGLTWNSLKDKKSCHTAVDRTAGWNIPMGLIVNQTGSCAFDEFFSQSCAPGRDPKSRLCALCAGDDQGLDKCVPNSKEKYYGYTGAFRCLAEDVGDVAFVKNDTVWENTNGESTADWAKNLNREDFRLLCLDGTRKPVTEAQSCHLAVAPNHAVVSRSDRAAHVKQVLLHQQALFGKNGKNCPDKFCLFKSETKNLLFNDNTECLAKLGGRPTYEEYLGTEYVTAIANLKKCSTSPLLEACAFLTR
Inhibition of Planktonic Growth [1]: None | bacterial growth on chicken breast [2]: no detectable growth of any bacteria colonies | Inhibition of Biofilm Formation (Escherichia coli): Strong (Lf was deemed to have a strong activity if biofilms were eliminated or significantly reduced to less than 90% less than no treatment at concentrations of 10 mg/mL or less after 24 hours of growth) | healing of infected chronic wound [3]: the wound was completely healed after it was checked after three weeks | zone of inhibition (E. coli; 10 µg/mL on paper circles): complete inhibition | zone of inhibition (E. coli; 100 µg/mL on paper circles): complete inhibition | zone of inhibition (E. coli; 0.1 g/mL on paper circles): No zone of inhibition | zone of inhibition (E. coli; 1 g/mL on paper circles): limited zone of inhibition | denaturation peak corresponding to apo-Lf [4]: ~60 °C | denaturation peak corresponding to holo-Lf [4]: 90 °C | relative ratio of apo to holo-Lactoferrin, DSC peak pattern [4]: heavily skewed towards apo-Lf | Lactoferrin localization at the ECM (IF imaging) [5]: enrichment at the ECM was observed as concentration increased | available Apolactoferrin shifted to the Hololactoferrin form [6]: 100% | LPO enzymatic activity (blue color reaction) (lactoperoxidase (LPO)): neither detected by M/S or by the enzymatic assay | ECM association of Lactoferrin (immunofluorescence imaging) [7]: strong binding along the ECM | Inhibition of Biofilm Formation (Candida auris): Strong (Lf was deemed to have a strong activity if biofilms were eliminated or significantly reduced to less than 90% less than no treatment at concentrations of 10 mg/mL or less after 24 hours of growth) | Inhibition of Biofilm Formation (Streptococcus mutans): Strong (Lf was deemed to have a strong activity if biofilms were eliminated or significantly reduced to less than 90% less than no treatment at concentrations of 10 mg/mL or less after 24 hours of growth) | EC50 (SARS-CoV-2): 90 nM | Inhibition of Biofilm Formation (Candida albicans): Strong (Lf was deemed to have a strong activity if biofilms were eliminated or significantly reduced to less than 90% less than no treatment at concentrations of 10 mg/mL or less after 24 hours of growth) | Inhibition of Biofilm Formation (Pseudomonas aeruginosa): Strong (Lf was deemed to have a strong activity if biofilms were eliminated or significantly reduced to less than 90% less than no treatment at concentrations of 10 mg/mL or less after 24 hours of growth) | binding to Heparan Sulfate [8]: far greater binding to Heparan Sulfate than the research standard | inhibition of bacterial growth over time (E. coli 0157; E. coli 0157 in LB): near complete inhibition of bacterial growth up to 18 hours | time at which bacterial growth became observable / evident (E. coli 0157; E. coli 0157 in LB): 21 h | Bacterial Growth Timecourse, Replicate 1 (E. coli 0157; 3 h): −0.00372 | Bacterial Growth Timecourse, Replicate 2 (E. coli 0157; 3 h): −0.00129 | Bacterial Growth Timecourse, Replicate 3 (E. coli 0157; 3 h): 0.02246 | Bacterial Growth Timecourse, Replicate 1 (E. coli 0157; 6 h): 0.007916 | Bacterial Growth Timecourse, Replicate 2 (E. coli 0157; 6 h): 0.01196 | Bacterial Growth Timecourse, Replicate 3 (E. coli 0157; 6 h): 0.03279 | Bacterial Growth Timecourse, Replicate 1 (E. coli 0157; 9 h): 0.01583 | Bacterial Growth Timecourse, Replicate 2 (E. coli 0157; 9 h): 0.02246 | Bacterial Growth Timecourse, Replicate 3 (E. coli 0157; 9 h): 0.02019 | Bacterial Growth Timecourse, Replicate 1 (E. coli 0157; 12 h): 0.04443 | Bacterial Growth Timecourse, Replicate 2 (E. coli 0157; 12 h): 0.04136 | Bacterial Growth Timecourse, Replicate 3 (E. coli 0157; 12 h): 0.02633 | Bacterial Growth Timecourse, Replicate 1 (E. coli 0157; 15 h): 0.04976 | Bacterial Growth Timecourse, Replicate 2 (E. coli 0157; 15 h): 0.05816 | Bacterial Growth Timecourse, Replicate 3 (E. coli 0157; 15 h): 0.04685 | Bacterial Growth Timecourse, Replicate 1 (E. coli 0157; 18 h): 0.04152 | Bacterial Growth Timecourse, Replicate 2 (E. coli 0157; 18 h): 0.0399 | Bacterial Growth Timecourse, Replicate 3 (E. coli 0157; 18 h): 0.04281 | Bacterial Growth Timecourse, Replicate 1 (E. coli 0157; 21 h): 0.1997 | Bacterial Growth Timecourse, Replicate 2 (E. coli 0157; 21 h): 0.1696 | Bacterial Growth Timecourse, Replicate 3 (E. coli 0157; 21 h): 0.106 | Bacterial Growth Timecourse, Replicate 1 (E. coli 0157; 24 h): 0.3648 | Bacterial Growth Timecourse, Replicate 2 (E. coli 0157; 24 h): 0.2898 | Bacterial Growth Timecourse, Replicate 3 (E. coli 0157; 24 h): 0.2034 | Inhibition of Biofilm Formation (Staphylococcus aureus): Strong (Lf was deemed to have a strong activity if biofilms were eliminated or significantly reduced to less than 90% less than no treatment at concentrations of 10 mg/mL or less after 24 hours of growth) | Inhibition of Biofilm Formation (Cryptococcus neoformans): Strong (Lf was deemed to have a strong activity if biofilms were eliminated or significantly reduced to less than 90% less than no treatment at concentrations of 10 mg/mL or less after 24 hours of growth)

Source: patent US20260000736A1, “PURIFIED LACTOFERRIN COMPOSITIONS AND METHODS OF USE” (Lactea Therapeutics LLC, priority 2023, published 2026)
